For eight molecules, Kd results are on record in patent publication US20190225698A1 (published 2019).

The target in assay [1] is human CD27-His. Kind of assay: SPR.
Assay [2] addresses T1, rhesus monkey CD27-Fc protein (rhesus monkey).
T1 chain: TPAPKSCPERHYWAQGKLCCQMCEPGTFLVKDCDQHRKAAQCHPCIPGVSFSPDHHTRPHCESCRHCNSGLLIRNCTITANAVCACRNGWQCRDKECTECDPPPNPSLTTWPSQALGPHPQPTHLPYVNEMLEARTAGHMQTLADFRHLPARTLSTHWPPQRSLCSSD
Kind of assay: BLI.

Assay [3] deals with T2, murine CD27 expressed on the cell surface of transfected HEK293 cells (murine, UniProt P41272 24-250).
T2 chain: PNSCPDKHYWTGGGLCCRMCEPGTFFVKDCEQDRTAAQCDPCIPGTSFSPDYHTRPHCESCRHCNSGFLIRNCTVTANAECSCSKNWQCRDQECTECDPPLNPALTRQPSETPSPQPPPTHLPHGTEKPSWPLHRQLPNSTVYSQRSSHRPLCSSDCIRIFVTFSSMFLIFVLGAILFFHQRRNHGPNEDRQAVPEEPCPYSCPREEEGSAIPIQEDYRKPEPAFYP
In words: flow cytometry.

In assay [4] the target is T3, human CD27 expressed on the cell surface of transfected HEK293 cells (human, UniProt P26842 20-260). Kind of assay: flow cytometry.
Assay [5] addresses T4, murine CD27-FcHis fusion protein (murine, UniProt P41272 24-182).
T4 chain: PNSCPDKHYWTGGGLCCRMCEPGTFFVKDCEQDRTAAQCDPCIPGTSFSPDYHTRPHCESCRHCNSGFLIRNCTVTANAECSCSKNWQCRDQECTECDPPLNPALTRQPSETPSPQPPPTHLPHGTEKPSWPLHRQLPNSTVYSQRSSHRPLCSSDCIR
Kind of assay: SPR.

Assay [6] addresses T5, human CD27-HisFc fusion protein (human, UniProt P26842 20-192).
T5 chain: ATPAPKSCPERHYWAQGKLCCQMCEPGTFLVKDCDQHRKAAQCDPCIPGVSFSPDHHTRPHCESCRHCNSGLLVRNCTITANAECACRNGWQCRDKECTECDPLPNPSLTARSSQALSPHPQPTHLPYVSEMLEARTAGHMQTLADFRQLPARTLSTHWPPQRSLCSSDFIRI
In words: BLI.

The target of assay [7] is T2, murine CD27 expressed on the cell …. In words: flow cytometry.
Assay [8] has as its target T3, human CD27 expressed on the cell …. In words: flow cytometry. The source holds these as a separate data set.

Read-outs that look alike come from different tables or passages of the source.

B1: 1F5-IgG (antibody, V domains shown)
VH: QVQLVESGGGVVQPGRSLRLSCAASGFTFSSYDMHWVRQAPGKGLEWVAVIWYDGSNKYYADSVKGRFTISRDNSKNTLYLQMNSLRAEDTAVYYCARGSGNWGFFDYWGQGTLVTVSS
VL: DIQMTQSPSSLSASVGDRVTITCRASQGISRWLAWYQQKPEKAPKSLIYAASSLQSGVPSRFSGSGSGTDFTLTISSLQPEDFATYYCQQYNTYPRTFGQGTKVEIK
On to B1, for which the Kd in assay [1] stood at 1390 pM.

B2: reference antibody 1F5 (antibody, V domains shown)
VH: QVQLVESGGGVVQPGRSLRLSCAASGFTFSSYDMHWVRQAPGKGLEWVAVIWYDGSNKYYADSVKGRFTISRDNSKNTLYLQMNSLRAEDTAVYYCARGSGNWGFFDYWGQGTLVTVSS
VL: DIQMTQSPSSLSASVGDRVTITCRASQGISRWLAWYQQKPEKAPKSLIYAASSLQSGVPSRFSGSGSGTDFTLTISSLQPEDFATYYCQQYNTYPRTFGQGTKVEIK
In the case of B2, the Kd in assay [2] came out at 2130 pM; in assay [3] it was 31000 pM; in assay [4], 560 pM.

B3: anti-CD27 antibody mAb077 (IgG1 form) (antibody, V domains shown)
VH: EVQLVESGGGLVQPGGSLRLSCAASGFTFSGYGIHWVRQAPGKGLEWIGWINPNRGSTKYAQKFQGRVTISRDNSKNTLYLQLNSLRAEDTAVYYCARDPGYTWYFDVWGQGTLVTVSS
VL: DIQLTQSPSSLSASVGDRVTITCRASQDISSDLAWYQQKPGKAPKLLIYAASTLQSGVPSRFSGSGSGTDFTLTISSLQPEDFATYYCQQRDAWPPTFGQGTKVEIK
As to B3, the Kd in assay [2] stood at 562 pM; in assay [5] it was 30.4 pM.

B4: mAb076 antibody Fab fragment with C-terminal histidine tag (Fab, V domains shown)
VH: EVQLVESGGGLVQPGGSLRLSCAASGFTFSDYGIHWVRQAPGKGLEWIGWINPNRGSTNYAQKFQGRVTISRDNSKNTLYLQLNSLRAEDTAVYYCARDYGYTWYFDVWGQGTLVTVSS
VL: DIQLTQSPSSLSASVGDRVTITCRASQDISSVLAWYQQKPGKAPKLLIYAASSLQSGVPSRFSGSGSGTDFTLTISSLQPEDFATYYCQQRDAWPLTFGQGTKVEIK
In assay [6], B4 yielded a Kd of 1610 pM.

B5: mAb077 antibody Fab fragment with C-terminal histidine tag (Fab, V domains shown)
VH: EVQLVESGGGLVQPGGSLRLSCAASGFTFSGYGIHWVRQAPGKGLEWIGWINPNRGSTKYAQKFQGRVTISRDNSKNTLYLQLNSLRAEDTAVYYCARDPGYTWYFDVWGQGTLVTVSS
VL: DIQLTQSPSSLSASVGDRVTITCRASQDISSDLAWYQQKPGKAPKLLIYAASTLQSGVPSRFSGSGSGTDFTLTISSLQPEDFATYYCQQRDAWPPTFGQGTKVEIK
In assay [6], B5 gave a Kd of 4080 pM.

B6: mAb077-IgG (antibody, V domains shown)
VH: EVQLVESGGGLVQPGGSLRLSCAASGFTFSGYGIHWVRQAPGKGLEWIGWINPNRGSTKYAQKFQGRVTISRDNSKNTLYLQLNSLRAEDTAVYYCARDPGYTWYFDVWGQGTLVTVSS
VL: DIQLTQSPSSLSASVGDRVTITCRASQDISSDLAWYQQKPGKAPKLLIYAASTLQSGVPSRFSGSGSGTDFTLTISSLQPEDFATYYCQQRDAWPPTFGQGTKVEIK
For B6, the Kd in assay [1] is 137 pM.

B7: mAb076-IgG (antibody, V domains shown)
VH: EVQLVESGGGLVQPGGSLRLSCAASGFTFSDYGIHWVRQAPGKGLEWIGWINPNRGSTNYAQKFQGRVTISRDNSKNTLYLQLNSLRAEDTAVYYCARDYGYTWYFDVWGQGTLVTVSS
VL: DIQLTQSPSSLSASVGDRVTITCRASQDISSVLAWYQQKPGKAPKLLIYAASSLQSGVPSRFSGSGSGTDFTLTISSLQPEDFATYYCQQRDAWPLTFGQGTKVEIK
As to B7, the dissociation constant Kd in assay [1] was 332 pM.

B8: anti-CD27 antibody mAb076 (IgG1 form) (antibody, V domains shown)
VH: EVQLVESGGGLVQPGGSLRLSCAASGFTFSDYGIHWVRQAPGKGLEWIGWINPNRGSTNYAQKFQGRVTISRDNSKNTLYLQLNSLRAEDTAVYYCARDYGYTWYFDVWGQGTLVTVSS
VL: DIQLTQSPSSLSASVGDRVTITCRASQDISSVLAWYQQKPGKAPKLLIYAASSLQSGVPSRFSGSGSGTDFTLTISSLQPEDFATYYCQQRDAWPLTFGQGTKVEIK
With B8, the Kd is less than 1 pM in assay [2], 300 pM in assay [7], 160 pM in assay [8] and 75.4 pM in assay [5].
